Patent US20100021480A1, “BIOACTIVE SUBSTANCE-BLOOD PROTEIN CONJUGATE AND STABILIZATION OF A BIOACTIVE SUBSTANCE USING THE SAME” (priority 2005, published 2010)

Experiments:
[1] = target: activated albumin 21 (human serum albumin whose Cys34 free thiol is substituted by a disulfanyl group with aldrithiol) (human) (UniProt P02768); assay: albumin binding test: 20 µl of 1 mM Compound 15 with 50 µl of 1 mM activated albumin in 100 µl PBS, 37 C 30 min, methanol precipitation, HPLC of supernatant (unbound peptide)
Chain of activated albumin 21 (human serum albumin whose Cys34 free thiol is substituted by a disulfanyl group with aldrithiol) (human) (P02768 25-609 limits assumed): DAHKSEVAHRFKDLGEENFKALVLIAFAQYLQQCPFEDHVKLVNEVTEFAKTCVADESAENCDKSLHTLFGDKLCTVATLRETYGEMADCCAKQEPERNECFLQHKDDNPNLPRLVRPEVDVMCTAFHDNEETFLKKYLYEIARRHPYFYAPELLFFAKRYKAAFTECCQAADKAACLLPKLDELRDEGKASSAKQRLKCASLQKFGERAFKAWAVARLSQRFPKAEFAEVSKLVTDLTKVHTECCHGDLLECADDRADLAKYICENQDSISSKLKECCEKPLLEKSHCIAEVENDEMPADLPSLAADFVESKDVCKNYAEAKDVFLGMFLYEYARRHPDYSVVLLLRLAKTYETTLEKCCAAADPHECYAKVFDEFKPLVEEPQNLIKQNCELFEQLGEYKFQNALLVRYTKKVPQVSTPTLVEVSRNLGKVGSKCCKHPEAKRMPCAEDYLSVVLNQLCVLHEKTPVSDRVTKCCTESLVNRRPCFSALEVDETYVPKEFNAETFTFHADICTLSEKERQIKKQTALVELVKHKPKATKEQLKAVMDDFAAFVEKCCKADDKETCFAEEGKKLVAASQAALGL

[2] = target: activated albumin 21 (human serum albumin whose Cys34 free thiol is substituted by a disulfanyl group with aldrithiol) (human) (UniProt P02768); assay: albumin binding test: 50 µl of 1 mM Compound 15 with 50 µl of 1 mM activated albumin, HPLC of supernatant (unbound peptide)
[3] = target: activated albumin 21 (human serum albumin whose Cys34 free thiol is substituted by a disulfanyl group with aldrithiol) (human) (UniProt P02768); assay: albumin binding test: 40 µl of 1 mM Compound 15 with 50 µl of 1 mM activated albumin in 100 µl PBS, 37 C 30 min, methanol precipitation, HPLC of supernatant (unbound peptide)
[4] = target: activated albumin 21 (human serum albumin whose Cys34 free thiol is substituted by a disulfanyl group with aldrithiol) (human) (UniProt P02768); assay: albumin binding test: 50 µl of 1 mM Compound 15 with 40 µl of 1 mM activated albumin in 100 µl PBS, 37 C 30 min, methanol precipitation, HPLC of supernatant (unbound peptide)
[5] = target: activated albumin 21 (human serum albumin whose Cys34 free thiol is substituted by a disulfanyl group with aldrithiol) (human) (UniProt P02768); assay: albumin binding test: 50 µl of 1 mM Compound 15 with 50 µl of 1 mM activated albumin in 100 µl, 37 C 30 min, methanol precipitation, HPLC of supernatant (unbound peptide)
[6] = target: activated albumin 21 (human serum albumin whose Cys34 free thiol is substituted by a disulfanyl group with aldrithiol) (human) (UniProt P02768); assay: albumin binding test: 40 µl of 1 mM Compound 15 with 50 µl of 1 mM activated albumin, HPLC of supernatant (unbound peptide)
[7] = target: activated albumin 21 (human serum albumin whose Cys34 free thiol is substituted by a disulfanyl group with aldrithiol) (human) (UniProt P02768); assay: albumin binding test: 50 µl of 1 mM Compound 15 with 40 µl of 1 mM activated albumin, HPLC of supernatant (unbound peptide)
[8] = target: activated albumin 21 (human serum albumin whose Cys34 free thiol is substituted by a disulfanyl group with aldrithiol) (human) (UniProt P02768); assay: albumin binding test: 20 µl of 1 mM Compound 15 with 50 µl of 1 mM activated albumin, HPLC of supernatant (unbound peptide)

PA 20.6 min (HPLC peak area of Compound 15 left in the supernatant) [1]: 1.3e+06 peak area | PA 20.6 min/4.4M (peak area against that of 10 µl Compound 15 alone) [2]: 3.3 | PA 20.6 min (HPLC peak area of Compound 15 left in the supernatant) [3]: 9.8e+06 peak area | PA 20.6 min (HPLC peak area of Compound 15 left in the supernatant) [4]: 1.79e+07 peak area | PA 20.6 min (HPLC peak area of Compound 15 left in the supernatant) [5]: 1.47e+07 peak area | PA 20.6 min/4.4M (peak area against that of 10 µl Compound 15 alone) [6]: 2.2 | PA 20.6 min/4.4M (peak area against that of 10 µl Compound 15 alone) [7]: 4 | PA 20.6 min/4.4M (peak area against that of 10 µl Compound 15 alone) [8]: 0.3
Substance: Compound 15: Leuprolide-GSG-Lys-[ε-AEEA-CO-(CH2)2-SH]-NH2.2TFA (peptide)
